Earlier results, collected in article PMC4086743 (Amino acids, 2012).

B1: HD5: human Paneth cell α-defensin HD5 (peptide, UniProt Q01523 20-94, looked up)
Defensin alpha 5: ESLQERADEATTQKQSGEDNQDLAISFAGNGLSALRTSGSQARATCYCRTGRCATRESLSGVCEISGRLYRLCCR
modifications: Defensin-5
B2: proCrp4: full-length precursor of Crp4 with electronegative proregion, recombinant (protein, UniProt P28311 20-92, looked up)
pro-form: DPIQNTDEETKTEEQPGEEDQAVSISFGGQEGSALHEKSLRGLLCYCRKGHCKRGERVRGTCGIRFLYCCPRR
modifications: pro-form

Molecule	sensitivity to trypsin (trypsin)	sensitivity to chymotrypsin (chymotrypsin)	resistance to proteolysis by MMP7 (MMP7)
B1	insensitive	insensitive	
B2			completely resistant
